Where no end group is shown, it is not given here.
B1: phosphorylated SNAP-ADAP fusion protein (ADAP amino acids 570-690) (domain or fragment, human, UniProt O15117 570-690, looked up)
chain: DYDSLKLKKDSLGAPSRPIEDDQEVYDDVAEQDDISSHSQSGSGGIFPPPPDDDIYDGIEEEDADDGFPAPPKQLDMGDEVYDDVDTSDFPVSSAEMSQGTNVGKAKTEEKDLKKLKKQEK
modifications: phosphotyrosine (in vitro phosphorylation by Fyn kinase, approx. 90% of each phosphorylation site; sites in Table S1); BG-647 dye on the SNAP-tag
notes: adhesion and degranulation promoting adapter protein (ADAP), human, section 570-690; Cloned into the SNAP-tag vector pSET7-26b (NEB) via BamHI, XhoI; also called ADAP-P; phosphorylated ADAP; not shown: SNAP-tag, N-terminal, kept

Key:
Conditions in all cases: one partner purified
[1] = target: T1, Rasa1b (Rasa1 sequence 174-447) without biotin (for MST) (UniProt P20936 174-447); test: MST; SH2 proteins (only partly purified) serially diluted in 1x PBS with 1.75% (v/v) E. coli extract; fluorescent ADAP at 12 nM; 5 min at RT; Monolith NT.115
T1 construct: same linear template as m11, cloned into pIX3.0; source: cell-free (RTS500 PM HY kit, plasmid pIX3.0), partly purified by buffer exchange to PBS and ultracentrifugation
T1 sequence (looked up): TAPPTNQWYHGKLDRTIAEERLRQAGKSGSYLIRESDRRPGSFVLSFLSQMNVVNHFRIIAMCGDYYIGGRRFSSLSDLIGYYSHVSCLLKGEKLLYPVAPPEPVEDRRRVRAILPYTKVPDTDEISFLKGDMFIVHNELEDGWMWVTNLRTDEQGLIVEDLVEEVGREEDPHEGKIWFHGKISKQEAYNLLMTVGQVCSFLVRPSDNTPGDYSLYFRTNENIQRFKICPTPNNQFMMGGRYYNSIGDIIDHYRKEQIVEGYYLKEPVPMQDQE

[2] = target: B1; test: as above
[3] = target: T2, Src SH2 domain without biotin (for MST) (UniProt P12931 151-248); test: MST; as for ADAP, with the fluorescent YEEI fusion and 0.05% Tween-20 (v/v) added to the interaction buffer; SH2 proteins (only partly purified) serially diluted
T2 construct: Src, SH2 domain; same linear template as m6, cloned into pIX3.0; source: cell-free (RTS500 PM HY kit, plasmid pIX3.0), partly purified by buffer exchange to PBS and ultracentrifugation

Binder | Kd [2] [nM] | also measured
B1 | – | Kd [1]: ~100 nM
RasaN (N-terminal SH2 domain of Rasa1) without biotin (for MST) (domain or fragment, UniProt P20936 181-272, looked up, Rasa1, isolated N-terminal SH2 domain; same linear template as m17, cloned into pIX3.0; source: cell-free (RTS500 PM HY kit, plasmid pIX3.0), partly purified by buffer exchange to PBS and ultracentrifugation) WYHGKLDRTIAEERLRQAGKSGSYLIRESDRRPGSFVLSFLSQMNVVNHFRIIAMCGDYYIGGRRFSSLSDLIGYYSHVSCLLKGEKLLYPV | ~100 | –
SLP-76 SH2 domain without biotin (for MST) (domain or fragment, UniProt Q13094 422-530, looked up, SLP-76; same linear template as m10, cloned into pIX3.0; source: cell-free (RTS500 PM HY kit, plasmid pIX3.0), partly purified by buffer exchange to PBS and ultracentrifugation) WYVSYITRPEAEAALRKINQDGTFLVRDSSKKTTTNPYVLMVLYKDKVYNIQIRYQKESQVYLLGTGLRGKEDFLSVSDIIDYFRKMPLLLIDGKNRGSRYQCTLTHAA | ~400 | –
Lck SH2 domain without biotin (for MST) (domain or fragment, UniProt P06239 127-224, looked up, Lck, SH2 domain; same linear template as m8, cloned into pIX3.0; source: cell-free (RTS500 PM HY kit, plasmid pIX3.0), partly purified by buffer exchange to PBS and ultracentrifugation) WFFKNLSRKDAERQLLAPGNTHGSFLIRESESTAGSFSLSVRDFDQNQGEVVKHYKIRNLDNGGFYISPRITFPGLHELVRHYTNASDGLCTRLSRPC | ~1000 | –
SH2D1A without biotin (for MST) (natural protein, UniProt O60880 1-128, looked up, SH2D1A; same linear template as m7, cloned into pIX3.0; source: cell-free (RTS500 PM HY kit, plasmid pIX3.0), partly purified by buffer exchange to PBS and ultracentrifugation) MDAVAVYHGKISRETGEKLLLATGLDGSYLLRDSESVPGVYCLCVLYHGYIYTYRVSQTETGSWSAETAPGVHKRYFRKIKNLISAFQKPDQGIVIPLQYPVEKKSSARSTQGTTGIREDPDVCLKAP | – | fold weaker binding than the SH2 domains of Src, Lck and Fyn [2]: 6 fold
THQEEEEPQYEEIPIYL (not fully specified; also: tyrosine phosphorylation in vitro by Fyn, degree not placed, Middle T antigen of Hamster Polyomavirus, aa 315-331 with the Y324EEI motif; also called phosphorylated YEEI; YEEI fusion construct; not shown: SNAP-tag, N-terminal, kept) [phosphorylated SNAP-YEEI fusion (middle T antigen aa 315-331)] | – | Kd [3]: ~515 nM
